Values quoted from earlier work in article PMC8805269.

Molecular target: Swi6 CSD (Schizosaccharomyces pombe) (UniProt P40381)

- Kd: < 17 nM
Substance: Swi6 CSD (from UniProt P40381)
